In patent publication US20150010566A1 (AIMM THERAPEUTICS B V, published 2015):

Legend:
[1] = target: HA of Influenza H1N1 (A/Hawaii/31/2007), on infected MDCK-SIAT cells or on virus (Influenza A virus H1N1 A/Hawaii/31/2007); test: cell-based or functional assay
[2] = target: HA of H3N2 HKX-31 virus (Influenza A virus H3N2 HKX-31); test: cell-based or functional assay
[3] = target: HA of H5N1 A/turkey/Turkey/05 virus (Influenza A virus H5N1 …); test: cell-based or functional assay
[4] = target: T1, recombinant HA of full length H3 (A/Aichi/2/1968, full length) (Influenza A virus H3N2 A/Aichi/2/1968 …, UniProt P03437 17-530); test: ELISA; antigen coated 1 µg/ml; recombinant antibody; parameters: concentration or dose not given beside the values
T1 construct: domain: full length; also called H3N2 A/Aichi/2/1968 Full length; full-length H3 HA protein

B1: AT10-001 (antibody, V domains shown)
VH: EVQLLESGGGLVQPGGSLRLSCAASGFSFSTYAMSWVRQAPGKGLEWVSGISGSGESTYYADSVKGRFTVSRDNSKNTLYLQMNSLRAEDTAVYYCAKQGDHIAWLLRGINFDYWGQGVLVTVSS
VL: EIVLTQSPGTLSLSPGERATLSCRASQSVSSSYLAWYQQKPGQAPRLLIYGASTRATGIPDRFSGRGSGTDFTLTISSLEPEDFAVYYCQNYGSPFLFTFGPGTKVDIKR
- IC50, in vitro virus neutralization on MDCK-SIAT cells [1]: > 15 µg/mL
- IC50, in vitro virus neutralization on MDCK-SIAT cells [2]: 2.1 µg/mL
- IC50, in vitro virus neutralization on MDCK cells [3]: > 15 µg/mL
- OD 450 nm [4]: 0.953 OD 450 nm

B2: AT10-002 (antibody, V domains shown)
VH: QLQLQESGPRLVKPSETLSLTCSVSGVSISSSNYYWGWIRQPPGKGLEWIGTIYHSGSTYYNPSLKSRLIISVDTSKNQFYLQLTSLTAADSAVYYCATGGGFGWSQTYFGYWGQGTLVTASS
VL: QSALTQPASVSGSPGQSITISCTGTSSDVGAYNYVSWYQHHPGKAPKLMIYDVTYRPSGVSTRFSGSKSGNTASLTISGLQAEDEADYYCSSQSRSSTLVIFGGGTKLTVLG
- IC50, in vitro virus neutralization on MDCK-SIAT cells [2]: 0.25 µg/mL
- IC50, in vitro virus neutralization on MDCK cells [3]: > 15 µg/mL
- OD 450 nm [4]: 0.92 OD 450 nm

B3: AT10-003 (antibody, V domains shown)
VH: QVHLVQSGAEVRKPGASVKVSCKVSGYTLNELSIHWLRQAPGRGLEWMGSFDPEDGETIYAQKFQGRVTMTGDTSTDTAYLELTSLRSEDTALYYCARGWGAVTSPFDFWGQGTLVTVSS
VL: DIVMTQSPLSLPVTPGEPASISCRSSQSLLHSNGHIYFDWYLQKPGQSPQLLIYLVSKRASGVPDRFSGSGSGTDFTLKISRVEAEDVGVYYCMQALETPFTFGPGTKVHIKR
- IC50, in vitro virus neutralization on MDCK-SIAT cells [2]: > 15 µg/mL
- IC50, in vitro virus neutralization on MDCK cells [3]: > 15 µg/mL
- OD 450 nm [4]: 1.32 OD 450 nm

B4: AT10-005 (antibody, V domains shown)
VH: QVQLVQSGAEVKKPGSSVKVSCKASGGAFSNYAISWVRQAPGQGLEWMGGIIPIFGTTNYAQKFQGRVTITADKFTTIAYMELRSLRSEDTAVYYCARHGGVYYYGSASSGWFDPWGQGTLVTVSS
VL: EIVLTQSPGTLSLSPGERATLSCRASQSVSSSYLAWYQQKPGQAPRLLIFGASTRATGIPDRFSGSGSGTDFTLTISRLEPEDFAVFYCQQYGSLPLTFGGGTKVEIKG
- IC50, in vitro virus neutralization on MDCK cells [3]: 1.3 µg/mL

B5: AT10-004 (antibody, V domains shown)
VH: QVQLVQSGAEVRKPGASVKVSCKASGYTFTRHGISWVRQAPGQGLEWMGWISAYTGDTDYAQKFQGRVTMTTDTSTNTAYMELRSLRSDDAAVYYCARLRLQGEVVVPPSQSNWFDPWGQGTLVTVSS
VL: EIVLTQSPATLSLYPGERATLSCRASQSVSRYLAWYQQKPGQAPRLLIYDASNRATGIPARFSGSGSGTDFTLTISSLEPEDFAVYYCQQRSNWLKITFGQGTRLEIKG
- OD 450 nm [4]: 0.491 OD 450 nm
